# According to patent publication US6830937 (Bristol-Myers Squibb, dated 2004):
# What was measured:
# [1] = target: T1, CD28 receptor (human, UniProt P10747 19-220); assay: cell-based or functional assay
# [2] = target: B7 antigen (UniProt P33681); assay: cell-based or functional assay
# [3] = target: B7Ig fusion protein (human) [IgG part: P01857]; assay: competition of 125I-B7Ig binding to immobilized CD28Ig
# [4] = target: B7 antigen (UniProt P33681); assay: flow cytometry, direct staining of Raji cells (BL), no unlabeled BB-1
# [5] = target: B7 antigen (UniProt P33681); assay: flow cytometry, direct staining of Daudi cells (BL), no unlabeled BB-1
# [6] = target: B7 antigen (UniProt P33681); assay: flow cytometry, direct staining of 5E1 cells (B-LCL), no unlabeled BB-1
# [7] = target: B7 antigen (UniProt P33681); assay: flow cytometry, direct staining of Jijoye cells (BL), no unlabeled BB-1
# [8] = target: B7 antigen (UniProt P33681); assay: flow cytometry, direct staining of T51 cells (B-LCL), no unlabeled BB-1
# [9] = target: B7 antigen (UniProt P33681); assay: flow cytometry, direct staining of 5E1 cells after preincubation with unlabeled BB-1
# [10] = target: B7 antigen (UniProt P33681); assay: flow cytometry, direct staining of T51 cells after preincubation with unlabeled BB-1
# [11] = target: B7 antigen (UniProt P33681); assay: flow cytometry, direct staining of Raji cells after preincubation with unlabeled BB-1
# [12] = target: B7 antigen (UniProt P33681); assay: flow cytometry, direct staining of Daudi cells after preincubation with unlabeled BB-1
# [13] = target: B7 antigen (UniProt P33681); assay: flow cytometry, direct staining of Jijoye cells after preincubation with unlabeled BB-1
# [14] = target: T1, CD28 receptor; assay: flow cytometry, direct staining of CD28+ CHO cells
# [15] = target: T1, CD28 receptor; assay: flow cytometry, direct staining of phytohemagglutinin-stimulated T cells
molecule,measurement,setting,value
mAb 9.3 (Fab fragments),"[3H]-T incorporation by PHA blasts stimulated with B7+ CHO cells (40:1), 9.3 Fab at 10 µg/ml",[1],132000 cpm
mAb BB-1 (anti-B7) (antibody),"[3H]-T incorporation by PHA blasts stimulated with B7+ CHO cells (40:1), BB-1 at 10 µg/ml",[2],98300 cpm
same,inhibition of adhesion of Jijoye cells to CD28+ CHO cells,[2],60%
same,IC50,[3],140 nM
same,"mean fluorescence, -COLD",[4],7.1 linear units
same,"mean fluorescence, -COLD",[5],6.4 linear units
same,"mean fluorescence, -COLD",[6],13 linear units
same,"mean fluorescence, -COLD",[7],17.8 linear units
same,"mean fluorescence, -COLD",[8],16.4 linear units
same,"mean fluorescence, +COLD",[9],2.4 linear units
same,"mean fluorescence, +COLD",[10],3 linear units
same,"mean fluorescence, +COLD",[11],2.8 linear units
same,"mean fluorescence, +COLD",[12],2.8 linear units
same,"mean fluorescence, +COLD",[13],2.8 linear units
monoclonal antibody (mAb) 9.3 (anti-CD28),"[3H]-T incorporation by PBL, +Anti-CD3, Exp. 1, mAb 9.3 (immob.)",[1],137000 cpm
same,"[3H]-T incorporation by PBL, +Anti-CD3, Exp. 1, mAb 9.3 (soln.)",[1],156000 cpm
same,"[3H]-T incorporation by PBL, +Anti-CD3, Exp. 2, mAb 9.3 (soln.)",[1],75800 cpm
same,"[3H]-T incorporation by PBL, -Anti-CD3, Exp. 1, mAb 9.3 (immob.)",[1],100 cpm
same,"[3H]-T incorporation by PBL, -Anti-CD3, Exp. 1, mAb 9.3 (soln.)",[1],300 cpm
same,"[3H]-T incorporation by PBL, -Anti-CD3, Exp. 2, mAb 9.3 (soln.)",[1],400 cpm
same,half-maximal inhibition of CD28-mediated adhesion (PM lymphoblastoid cells to CD28+ CHO cells),[1],10 nM
same,inhibition of adhesion of B7 transfected COS cells to CD28+ CHO cells when EDTA was omitted,[1],40%
same,reduction of adhesion of T51 cells to CD28+ CHO cells by mAb 9.3 alone (no EDTA),[1],62%
same,reduction of adhesion of T51 cells to CD28+ CHO cells by mAb 9.3 plus EDTA,[1],93%
same,mean channel fluorescence (linear fluorescence units),[14],116
same,mean channel fluorescence (linear fluorescence units),[15],11.3
"B7 antigen (ligand, UniProt P33681 35-288, looked up) VIHVTKEVKEVATLSCGHNVSVEELAQTRIYWQKEKKMVLTMMSGDMNIWPEYKNRTIFDITNNLSIVILALRPSDEGTYECVVLKYEKDAFKREHLAEVTLSVKADFPTPSISDFEIPTSNIRRIICSTSGGFPEPHLSWLENGEELNAINTTVSQDPETELYAVSSKLDFNMTTNHSFMCLIKYGHLRVNQTFNWNTTKQEHFPDNLLPSWAITLISVNGIFVICCLTYCFAPRCRERRRNERLRRESVRPV","adhesion of 51Cr-labeled T51 cells to CD28+ CHO cells relative to CD28- CHO cells, with EDTA",[1],17 fold
same,"adhesion of 51Cr-labeled T51 cells to CD28+ CHO cells relative to CD28- CHO cells, without EDTA",[1],5.5 fold
